Measurements: the supplement of paper PMC10266784

B1: library; numbered along this chain (parent)
chain: MAAAAAAAAEQQSSNGPVKKSMREKAVERRSVNKEHNSNFKAGYIPIDEDRLHKTGLRGRKGNLAICVIILLFILAVINLIITLVIWAVIRIGPNGCDSMEFHESGLLRFKQVSDMGVIHPLYKSTVGGRRNENLVITGNNQPIVFQQGTTKLSVENNKTSITSDIGMQFFDPRTQNILFSTDYETHEFHLPSGVKSLNVQKASTERITSNATSDLNIKVDGRAIVRGNEGVFIMGKTIEFHMGGNMELKAENSIILNGSVMVSTTRLPSSSSGDQLGSGDWVRYKLCMCADGTLFKVQVTSQNMGCQISDNPCGNTH

Variants of: B1
Test: SGCB cell-surface expression functional score (HA stain, bin4 vs bin1, normalised to synonymous) (log10 ratio); higher = more cell-surface SGCB (functional)
Procedure: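 Deep mutational scan of full-length human SGCB (YFP-SGCB-HA, NNN codon sublibraries A-F) delivered by lentivirus at low MOI into ADG-HEK293 cells stably expressing SGCA, SGCD and SGCG. YFP-positive cells were stained for surface HA on unpermeabilized cells and FACS-sorted into bins. The functional score is log10(frequency in high bin 4 / frequency in low bin 1), normalised per chunk so that synonymous variants have mean 0 and SD 0.5. Scores are the median over codons and over duplicate biological replicates; scores below -0.5 are called non-functional. Scale: negative means deleterious.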

SGCB cell-surface expression functional score (log10), by site and new letter:
S14: E 0.27; L 0.1; N 0.61; F 0.19; Q 0.46; D 0.3; K 0.31; C 0.04; V 0.21; A 0.14; H 0.09; G 0.43; Y -0.15; P 0.22; I 0.03; R 0.04; T -0.01; M 0.08; W -0.06
A8: Q -0.13; R 0.09; D 0.14; M -0.04; C 0.27; T 0.33; H 0.25; P 0.35; E 0.48; S 0.05; V 0.43; I 0.15; F -0.02; Y 0.51; G 0.3; K 0.32; L -0.18; W 1.01; N 0.12
E10: A 0.17; H 0.08; L 0.02; C 0.47; F -0.46; W -0.16; K 0.18; T 0.27; Y 0.17; I 0.41; D 0.45; M -0.03; N 0.39; R 0.14; G 0.28; S 0.03; P 0.05; V -0.1; Q 0.15
A9: Y 0.45; D 0.38; S 0.12; E 0.28; L 0.19; N -0.39; G 0.37; F 0.04; P 0.17; W -0.24; Q 0.46; K 0.19; R 0.3; H 0.18; I 0.35; T 0.39; M 0.67; V 0.15; C 0.54
P17: N 0.1; Q -0.31; I -0.28; C 0.46; W -0.2; A 0.2; G -0.18; T 0.31; R -0.12; E 0.21; K 0.13; H 0.1; L -0.13; D 0.27; S 0.12; Y 0.31; V -0.13; M -0.04; F 0.2
A3: W 0.1; I -0.02; Q 0.11; V 0.12; M 0.11; T 0.17; D 0.14; G 0.02; K 0.06; L -0.02; E 0.2; C -0.24; S -0.23; Y 0.27; H 0.3; R 0.15; P 0.42; F 0.22; N 0.29
A4: K -0.03; W -0.07; Y -0.14; G 0.26; R -0.11; L 0.45; D 0.21; F -0.21; I 0.3; E -0.43; H 0.44; P 0.44; V -0.06; N -0.48; M 0.19; Q -0.48; T 0.36; C 0.4; S 0.05
G16: N 0.14; R 0.04; V 0.38; T -0.27; E 0.38; A -0.31; F 0.52; I -0.02; Y 0.23; Q 0.97; W 0.23; H 0.08; L -0.08; C -0.06; D 0.57; P 0.37; S 0.37; M 0.4; K 0.11
S13: E 0.25; R -0.07; A 0.2; Y 0.05; W 0.8; K 0.46; P 0.2; C -0.36; M 0.29; L 0.02; H 0.13; Q 0.29; V 0.2; N 0.08; D 0.05; T -0.13; G -0.08; F -0.45; I -0.1
A2: T 0.11; R 0.03; Q 0.19; F -0.48; L 0.2; G 0.17; W -0.4; E -0.61; C 0.1; K 0.23; M 0.02; Y 0.14; S 0.14; V 0.12; N 0.38; D -0.07; H 0.34; P 0.24; I 0.13
V18: M -0.08; L -0.01; D 0.09; I 0.24; H -0.54; K 0.16; G 0.04; A 0.26; E 0.13; C -0.07; F 0
A7: W 0.57; K 0.48; V 0.16; Y 0.05; T 0.27; I 0.29; H -0.54; M 0.23; C 0.18; N 0.06; R 0.24; F 0.02; E -0.36; G 0.2; L 0.13; S -0.09; P 0.29; Q 0.41; D 0.19
A6: E -0.14; P 0.11; F 0.37; C -0.11; Y 0.61; G 0.15; V 0.22; R 0; W -0.46; T 0.07; D 0.24; M 0.13; S 0.25; L -0.21; Q 0.69; I 0.36; H -0.23; N 0.26; K -0.2
M1: I -1.06; L -1.26; G 0.1; Y -0.02; H 0.01; W -0.07; D 0.69; P 0.21; R -0.06; Q 0.35; V 0.28; K 0.14; A 0.12; E -0.03; T -1.08; C 0.25; S 0.07; F -0.28; N 0.37
A5: Y 0.39; M 0.25; K 0.07; S 0.1; N -0.07; E -0.03; W 0.56; R -0.2; L 0.24; G 0.2; F 0.61; D -0.01; H 0.12; V 0.01; C 0.11; Q 0.33; P -0.19; I 0.29; T 0.22
Q12: W -0.29; A 0.29; G 0.12; D -0.24; M -0.09; H 0.03; N 0.01; Y -0.05; S 0.04; K 0.02; L 0.03; F -0.27; T -0.35; C -0.19; E 0; P 0.06; V -0.06; I -0.43; R 0.29
Q11: I -0.5; C 0.65; W 0.61; K -0.03; G 0.64; H 0.19; S 0.39; E 0.17; R 0.14; M -0.03; P 0.41; N 0.3; Y 0.17; D 0.04; F 0.07; V -0.03; A -0.04; T -0.02; L 0.04
N15: Y 0.13; F 0.28; I 0.04; H -0.07; M 0.35; K 0.05; T 0.14; R 0.19; D -0.15; W 0.29; S -0.02; P 0.34; C 0.19; Q 0.32; A 0.45; G 0.04; L 0.32; V 0.31; E 0.33
